Biological target: FLAG-HA-Atoh1 (Mus musculus (Mouse)) (UniProt P48985)
Experiment: IP-MS: immunoprecipitation of Atoh1 and its associated binding partners, excised gel band, mass spectrometry

Total peptide | Molecule
1 peptides | AAMP (from UniProt Q13685)
5 peptides | BCKDHA (from UniProt P12694)
7 peptides | CK1δ (CSNK1D), endogenous in 293T cells (from UniProt P48730) (enzyme)
6 peptides | CK1ε (CSNK1E), endogenous in 293T cells (from UniProt P49674) (enzyme)
103 peptides | EEF1A1 (from UniProt P68104)
62 peptides | ENO1 (from UniProt P06733)
1 peptides | PDE4B (from UniProt Q07343)
1 peptides | PRDX4 (from UniProt Q13162)
3 peptides | PRPS1 (from UniProt P60891)
50 peptides | PSMC2 (from UniProt P35998)
52 peptides | PSMC5 (from UniProt P62195)
65 peptides | RBMX (from UniProt P38159)
7 peptides | TUBA1C (from UniProt Q9BQE3)
1 peptides | TUBA4A (from UniProt P68366)
159 peptides | TUBB2A (from UniProt Q13885)
2 peptides | TUBB2B (from UniProt Q9BVA1)
9 peptides | SERPINH1 (protein) AEVKKPAAAAAPGTAEKLSPKAATLAERSAGLAFSLYQAMAKDQAVENILVSPVVVASSLGLVSLGGKATTASQAKAVLSAEQLRDEEVHAGLGELLRSLSNSTARNVTWKLGSRLYGPSSVSFADDFVRSSKQHYNCEHSKINFRDKRSALQSINEWAAQTTDGKLPEVTKDVERTDGALLVNAMFFKPHWDEKFHHKMVDNRGFMVTRSYTVGVMMMHRTGLYNYYDDEKEKLQIVEMPLAHKLSSLIILMPHHVEPLERLEKLLTKEQLKIWMGKMQKKAVAISLPKGVVEVTHDLQKHLAGLGLTEAIDKNKADLSRMSGKKDLYLASVFHATAFELDTDGNPFDQDIYGREELRSPKLFYADHPFIFLVRDTQSGSLLFIGRLVRPKGDKMRDEL
65 peptides | SSB (protein) MAENGDNEKMAALEAKICHQIEYYFGDFNLPRDKFLKEQIKLDEGWVPLEIMIKFNRLNRLTTDFNVIVEALSKSKAELMEISEDKTKIRRSPSKPLPEVTDEYKNDVKNRSVYIKGFPTDATLDDIKEWLEDKGQVLNIQMRRTLHKAFKGSIFVVFDSIESAKKFVETPGQKYKETDLLILFKDDYFAKKNEERKQNKVEAKLRAKQEQEAKQKLEEDAEMKSLEEKIGCLLKFSGDLDDQTCREDLHILFSNHGEIKWIDFVRGAKEGIILFKEKAKEALGKAKDANNGNLQLRNKEVTWEVLEGEVEKEALKKIIEDQQESLNKWKSKGRRFKGKGKGNKAAQPGSGKGKVQFQGKKTKFASDDEHDEHDENGATGPVKRAREETDKEEPASKQQKTENGAGDQ
11 peptides | YARS2 (protein) TLNLSVLLPLGLRKAHSGAQGLLAAQKARGLFKDFFPETGTKIELPELFDRGTASFPQTIYCGFDPTADSLHVGHLLALLGLFHLQRAGHNVIALVGGATARLGDPSGRTKEREALETERVRANARALRLGLEALAANHQQLFTDGRSWGSFTVLDNSAWYQKQHLVDFLAAVGGHFRMGTLLSRQSVQLRLKSPEGMSLAEFFYQVLQAYDFYYLFQRYGCRVQLGGSDQLGNIMSGYEFINKLTGEDVFGITVPLITSTTGAKLGKSAGNAVWLNRDKTSPFELYQFFVRQPDDSVERYLKLFTFLPLPEIDHIMQLHVKEPERRGPQKRLAAEVTKLVHGREGLDSAKRCTQALYHSSIDALEVMSDQELKELFKEAPFSEFFLDPGTSVLDTCRKANAIPDGPRGYRMITEGGVSINHQQVTNPESVLIVGQHILKNGLSLLKIGKRNFYIIKWLQL
5 peptides | ACOX1 (protein) MNPDLRRERDSASFNPELLTHILDGSPEKTRRRREIENMILNDPDFQHEDLNFLTRSQRYEVAVRKSAIMVKKMREFGIADPDEIMWFKKLHLVNFVEPVGLNYSMFIPTLLNQGTTAQKEKWLLSSKGLQIIGTYAQTEMGHGTHLRGLETTATYDPETQEFILNSPTVTSIKWWPGGLGKTSNHAIVLAQLITKGKCYGLHAFIVPIREIGTHKPLPGITVGDIGPKFGYDEIDNGYLKMDNHRIPRENMLMKYAQVKPDGTYVKPLSNKLTYGTMVFVRSFLVGEAARALSKACTIAIRYSAVRHQSEIKPGEPEPQILDFQTQQYKLFPLLATAYAFQFVGAYMKETYHRINEGIGQGDLSELPELHALTAGLKAFTSWTANTGIEACRMACGGHGYSHCSGLPNIYVNFTPSCTFEGENTVMMLQTARFLMKSYDQVHSGKLVCGMVSYLNDLPSQRIQPQQVAVWPTMVDINSPESLTEAYKLRAARLVEIAAKNLQKEVIHRKSKEVAWNLTSVDLVRASEAHCHYVVVKLFSEKLLKIQDKAIQAVLRSLCLLYSLYGISQNAGDFLQGSIMTEPQITQVNQRVKELLTLIRSDAVALVDAFDFQDVTLGSVLGRYDGNVYENLFEWAKNSPLNKAEVHESYKHLKSLQSKL

Molecule | Total peptide
TUBA1A (from UniProt Q71U36) | 112 peptides

From US20190247381A1
